This is an account of results in PMC6523098 (2019).

This assay deals with T1, His:AtBPM3 (Arabidopsis thaliana (Mouse-ear cress), UniProt O22286).
T1 chain: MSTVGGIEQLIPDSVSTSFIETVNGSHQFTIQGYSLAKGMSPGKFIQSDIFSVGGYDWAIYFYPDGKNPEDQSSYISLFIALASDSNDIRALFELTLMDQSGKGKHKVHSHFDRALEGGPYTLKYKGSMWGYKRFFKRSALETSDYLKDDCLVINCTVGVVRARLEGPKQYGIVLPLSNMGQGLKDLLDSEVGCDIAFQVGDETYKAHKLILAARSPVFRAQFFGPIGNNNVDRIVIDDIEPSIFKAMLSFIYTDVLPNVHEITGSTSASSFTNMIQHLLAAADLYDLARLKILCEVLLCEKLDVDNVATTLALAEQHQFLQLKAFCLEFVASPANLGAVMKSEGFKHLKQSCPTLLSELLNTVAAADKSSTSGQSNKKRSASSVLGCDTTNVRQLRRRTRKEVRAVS
Kind of assay: pulldown.

B1: GST:AtRAP2.4 (protein)
chain: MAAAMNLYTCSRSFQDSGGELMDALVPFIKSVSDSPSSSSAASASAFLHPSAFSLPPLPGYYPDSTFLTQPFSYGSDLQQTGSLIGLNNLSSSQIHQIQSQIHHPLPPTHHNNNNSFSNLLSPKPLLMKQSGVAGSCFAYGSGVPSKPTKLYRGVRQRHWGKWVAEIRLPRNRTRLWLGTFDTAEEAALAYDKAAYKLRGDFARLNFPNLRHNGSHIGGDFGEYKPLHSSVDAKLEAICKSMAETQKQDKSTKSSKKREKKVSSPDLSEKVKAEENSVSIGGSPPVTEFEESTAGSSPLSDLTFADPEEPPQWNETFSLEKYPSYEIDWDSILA
Regarding B1, the binding result is listed as “binds”.
